FireProtDB

B1: Ribonuclease HI, P0A7Y4 (parent)
chain: MLKQVEIFTDGSCLGNPGPGGYGAILRYRGREKTFSAGYTRTTNNRMELMAAIVALEALKEHCEVILSTDSQYVRQGITQWIHNWKKRGWKTADKKPVKNVDLWQRLDAALGQHQIKWEWVKGHAGHPENERCDELARAAAMNPTLEDTGYQVEV

Variants of: B1
Conditions: Escherichia coli (strain K12); pH 3; 50.1 °C; Thermal; CD; glycine-HCl 10 mM; NaCl 0.1 M; reversible: yes; structure 2RN2; whole UniProt chain shown

| Variant | ddG of mutation (higher = less stable) |
| --- | --- |
| R41C | -0.502 kJ/mol |
| G23A | -2.93 kJ/mol |
| E119V | -0.377 kJ/mol |
| A24V | -3.05 kJ/mol |

Same assay, conditions: Escherichia coli (strain K12); pH 5.5; 52.7 °C; Thermal; CD; Sodium acetate 20 mM; NaCl 0.1 M; reversible: yes; structure 2RN2; whole UniProt chain shown

| Variant | ddG of mutation (higher = less stable) |
| --- | --- |
| R41C | -1.84 kJ/mol |
| E119V | -3.1 kJ/mol |

Same assay, conditions: Escherichia coli (strain K12); pH 5.5; Thermal; CD; Sodium acetate 20 mM; NaCl 0.1 M; reversible: yes; structure 2RN2; whole UniProt chain shown

| Variant | Tm | change of melting temperature, mutant - wild type (higher = more stable) | unfolding enthalpy (van 't Hoff) |
| --- | --- | --- | --- |
| R41C | 54.3 °C | 1.6 °C | 427 kJ/mol |
| Q80L | 53.5 °C | 0.8 °C | 396 kJ/mol |
| G23A | 54.5 °C | 1.8 °C | 384 kJ/mol |
| E119V | 55.4 °C | 2.7 °C | 395 kJ/mol |
| A24V | 55.9 °C | 3.2 °C | 423 kJ/mol |

Same assay, conditions: Escherichia coli (strain K12); pH 3; 49.8 °C; Thermal; CD; glycine-HCl 10 mM; reversible: yes; structure 2RN2; whole UniProt chain shown

| Variant | ddG of mutation (higher = less stable) |
| --- | --- |
| G77A | 3.77 kJ/mol |
| Q113P | 0.837 kJ/mol |
| A125T | -0.418 kJ/mol |
| K91R D94E | 2.51 kJ/mol |

Same assay, conditions: Escherichia coli (strain K12); pH 3; Thermal; CD; glycine-HCl 10 mM; reversible: yes; structure 2RN2; whole UniProt chain shown

| Variant | Tm | change of melting temperature, mutant - wild type (higher = more stable) | unfolding enthalpy (van 't Hoff) |
| --- | --- | --- | --- |
| G77A | 46.9 °C | -2.9 °C |  |
| Q113P | 49.2 °C | -0.6 °C | 420 kJ/mol |
| A125T | 50.2 °C | 0.4 °C | 403 kJ/mol |
| D94E | 49.8 °C | -1.2 °C | 401 kJ/mol |
| K91R D94E | 47.8 °C | -2 °C | 392 kJ/mol |

Same assay, conditions: Escherichia coli (strain K12); pH 3; Thermal; CD; glycine-HCl 10 mM; NaCl 0.1 M; reversible: yes; structure 2RN2; whole UniProt chain shown

| Variant | Tm | change of melting temperature, mutant - wild type (higher = more stable) | unfolding enthalpy (van 't Hoff) |
| --- | --- | --- | --- |
| Q80L | 51.1 °C | 1 °C | 479 kJ/mol |
| G23A | 52.4 °C | 2.3 °C | 415 kJ/mol |
| A24V | 52.5 °C | 2.4 °C | 455 kJ/mol |

Same assay, conditions: Escherichia coli (strain K12); pH 5.5; 52 °C; Thermal; CD; Sodium acetate 20 mM; reversible: yes; structure 2RN2; whole UniProt chain shown

| Variant | ddG of mutation (higher = less stable) |
| --- | --- |
| Q113P | 2.51 kJ/mol |

Same assay, conditions: Escherichia coli (strain K12); pH 5.5; Thermal; CD; Sodium acetate 20 mM; reversible: yes; structure 2RN2; whole UniProt chain shown

| Variant | Tm | change of melting temperature, mutant - wild type (higher = more stable) | unfolding enthalpy (van 't Hoff) |
| --- | --- | --- | --- |
| Q113P | 49.9 °C | -2.1 °C | 339 kJ/mol |
| D94E | 52 °C | -1.6 °C | 389 kJ/mol |

Same assay, conditions: Escherichia coli (strain K12); pH 5.5; 52 °C; Thermal; CD; glycine-HCl 10 mM; reversible: yes; structure 2RN2; whole UniProt chain shown

| Variant | ddG of mutation (higher = less stable) |
| --- | --- |
| A125T | 0 kJ/mol |

Same assay, conditions: Escherichia coli (strain K12); pH 5.5; Thermal; CD; glycine-HCl 10 mM; reversible: yes; structure 2RN2; whole UniProt chain shown

| Variant | Tm | change of melting temperature, mutant - wild type (higher = more stable) | unfolding enthalpy (van 't Hoff) |
| --- | --- | --- | --- |
| A125T | 52 °C | 0 °C | 372 kJ/mol |
| K91R D94E | 50.2 °C | -1.8 °C | 366 kJ/mol |

Same assay, conditions: Escherichia coli (strain K12); pH 5.5; 49.8 °C; Thermal; CD; Sodium acetate 20 mM; reversible: yes; structure 2RN2; whole UniProt chain shown

| Variant | ddG of mutation (higher = less stable) |
| --- | --- |
| D94E | 1.67 kJ/mol |
